Assay results published in patent US20220363738A1.

Target: T1, Calnexin (Cnx) on the surface of human cells (MDA-MB-231 ER-G2, Huh7, KP4) (human), P27824
T1 chain: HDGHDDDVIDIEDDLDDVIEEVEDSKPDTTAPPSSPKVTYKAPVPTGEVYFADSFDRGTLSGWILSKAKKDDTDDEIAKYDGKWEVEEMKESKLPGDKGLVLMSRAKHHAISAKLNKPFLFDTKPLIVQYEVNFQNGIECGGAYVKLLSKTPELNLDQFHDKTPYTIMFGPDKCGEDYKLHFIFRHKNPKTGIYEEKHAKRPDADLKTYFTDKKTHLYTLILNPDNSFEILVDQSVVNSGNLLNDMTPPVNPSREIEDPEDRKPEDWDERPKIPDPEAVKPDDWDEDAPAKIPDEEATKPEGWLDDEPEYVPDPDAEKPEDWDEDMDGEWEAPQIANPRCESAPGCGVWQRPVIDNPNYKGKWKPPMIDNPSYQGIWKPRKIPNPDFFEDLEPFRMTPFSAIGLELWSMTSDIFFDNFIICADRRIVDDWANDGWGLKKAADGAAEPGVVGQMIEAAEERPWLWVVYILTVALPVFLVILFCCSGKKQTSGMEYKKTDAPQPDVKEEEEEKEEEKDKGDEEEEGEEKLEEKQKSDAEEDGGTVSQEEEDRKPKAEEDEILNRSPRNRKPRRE
Experiment: proximity ligation assay on live, intact cells, probes for Cnx and ERp57
Conditions: remark: other sources report otherwise

proximity ligation assay signal, fold increase in MDA ER-G2 against wild-type MDA cells: 10 fold
B1: ERp57 (PDIA3) on the surface of human MDA-MB-231 ER-G2 cells, P30101 25-505 (enzyme, UniProt P30101 25-505, looked up)
chain: SDVLELTDDNFESRISDTGSAGLMLVEFFAPWCGHCKRLAPEYEAAATRLKGIVPLAKVDCTANTNTCNKYGVSGYPTLKIFRDGEEAGAYDGPRTADGIVSHLKKQAGPASVPLRTEEEFKKFISDKDASIVGFFDDSFSEAHSEFLKAASNLRDNYRFAHTNVESLVNEYDDNGEGIILFRPSHLTNKFEDKTVAYTEQKMTSGKIKKFIQENIFGICPHMTEDNKDLIQGKDLLIAYYDVDYEKNAKGSNYWRNRVMMVAKKFLDAGHKLNFAVASRKTFSHELSDFGLESTAGEIPVVAIRTAKGEKFVMQEEFSRDGKALERFLQDYFDGNLKRYLKSEPIPESNDGPVKVVVAENFDEIVNNENKDVLIEFYAPWCGHCKNLEPKYKELGEKLSKDPNIVIAKMDATANDVPSPYEVRGFPTIYFSPANKKLNPKKYEGGRELSDFISYLQREATNPPVIQEEKPKKKKKAQEDL
modifications: here or on the partner: O-GalNAc (Tn) glycosylation at T50, T59, T66, T79, S81 and S86 after GALA activation
